In patent publication US10736971B2, “Peptide-based molecules for modulating car expression or accessibility and uses thereof” (Wright State University, priority 2015, dated 2020):

B1: MAGI-1 PDZ3 domain: MAGI-1 PDZ3 decoy domain, expressed from transfected plasmid in CHO-K1 cells (protein)
chain: KETGFGFRILGGNEPGEPIYIGHIVPLGAADTDGRLRSGDELICVDGTPVIGKSHQLVVQLMQQAAKQGHVNLTVR
modifications: PEPTIDE WILL BE CREATED USING CONVENTIONAL MEANS
notes: MAGI-1 PDZ3 decoy domain, expressed from transfected plasmid in CHO-K1 cells
B2: PDZ1 domain: MAGI-1 PDZ1 decoy domain, expressed from transfected plasmid in CHO-K1 cells (protein)
chain: RKSSRGFGFTVVGGDEPDEFLQIKSLVLDGPAALDGKMETGDVIVSVNDTCVLGHTHAQVVKIFQSIP
modifications: PEPTIDE WILL BE CREATED USING CONVENTIONAL MEANS
notes: MAGI-1 PDZ1 decoy domain, expressed from transfected plasmid in CHO-K1 cells

System: AdV-β-Gal
Assay: AdV-β-Gal transduction of transfected CAR-deficient CHO-K1 cells
Type: cell-based, Chinese hamster
Conditions: CHO-K1 transfected with CAR^Ex8, MAGI-1 and PDZ domain plasmids, MOI 100
Text: CAR-deficient CHO-K1 cells were A) single, B) double, or C) triple transfected with plasmids encoding CAR^Ex8, MAGI-1 (black bars), PDZ1 domain (dotted bars), or PDZ3 domain (white bars), and balanced with empty pcDNA3.1 plasmid, followed by AdV-β-Gal (MOI 100) transduction. CHO-K1 cells were double transfected with CAR^Ex8 and pcDNA3.1, MAGI-1, PDZ3, or PDZ1 and analyzed for D) total CAR^Ex8 protein or E) cell-surface biotinylated CAR^Ex8 protein expression. Quantification of at least three individual experiments is shown in all bar graphs. *p<0.05.

| Molecule | Adenovirus infection (AdV-β-Gal transduction) |
| --- | --- |
| B1 | decreases |
| B2 | inhibits MAGI-1-mediated CAR^Ex8 suppression to allow adenovirus infection |
